Paper PMC7243947, “AcDCXR Is a Cowpea Aphid Effector With Putative Roles in Altering Host Immunity and Physiology” (Frontiers in Plant Science, 2020)

Tests used:
purified protein [1] = substrate: CC(=O)C=O; experiment: purified protein; assay type: biochemical, Aphis craccivora; details: 200 μM NADPH (methods; figure legend prints 200 mM), sodium phosphate pH 6.5, methylglyoxal varied
purified protein [2] = substrate: NC(=O)c1ccc[n+]([C@@H]2O[C@H](COP(=O)(O)OP(=O)(O)OC[C@H]3O[C@@H](n4cnc5c(N)ncnc54)[C@H](OP(=O)(O)O)[C@@H]3O)[C@@H](O)[C@H]2O)c1; experiment: purified protein; assay type: biochemical, Aphis craccivora; details: 200 mM xylitol fixed, NADP+ varied, 100 mM glycine pH 9.5, 3 mM MgCl2, paper speaks of it as constant of xylitol oxidation, varied: cofactor

B1: AcDCXR (Aphis craccivora) (protein)
chain: MEEFFVGKKFIVTGANAGIGETITKRLVQLGAHVFAVGRDPKKLPPAGPNLTPVCADVGDWDSYDIIKKLGPVHGLVNNAGVAFIESFFDMTQEGWDKTLNINARGIVRISQAVAQNMKDAGIKGSIVNVSSTISERAIPDHTSYCASKGAVNQVTRVMSIELGKLGIRTNNVNPTVVMTKMGAKAWSDPEKSNPILSRIPLGRFAECDDVANVTLFLLSDYSTYVNGVSIPVDGGFLAS
notes: coding region without predicted signal peptide (first 23 of at least 263 residues); pDEST17 N-terminal 6xHis tag, no cleavage told; E. coli ArcticExpress
Km (purified protein [1]): 1300 µM
kcat (purified protein [1]): 0.23 s⁻¹
Km (purified protein [2]): 560 µM
kcat (purified protein [2]): 1.85 s⁻¹
